Data on 21 substances can be found in patent US20060084791A1.

Where “and” joins values, the source holds several entries; their conditions need not be identical. Equal entries are not always repeated.

What all share (experiment): cell-based or functional assay
Assay [1] addresses ecotropic receptor mCAT-1 (UniProt Q09143).
Assay [2] addresses polytropic/xenotropic receptor encoded by the Rmc1 locus of the NIH Swiss inbred NFS/N mouse (mouse (NIH Swiss; NIH 3T3 cells)) (UniProt Q9Z0U0).
The target in assay [3] is human polytropic/xenotropic receptor encoded by the human RMC1 locus (human) (UniProt Q9UBH6).
human polytropic/xenotropic receptor encoded by the human RMC1 locus (human), sequence (Q9UBH6 whole entry): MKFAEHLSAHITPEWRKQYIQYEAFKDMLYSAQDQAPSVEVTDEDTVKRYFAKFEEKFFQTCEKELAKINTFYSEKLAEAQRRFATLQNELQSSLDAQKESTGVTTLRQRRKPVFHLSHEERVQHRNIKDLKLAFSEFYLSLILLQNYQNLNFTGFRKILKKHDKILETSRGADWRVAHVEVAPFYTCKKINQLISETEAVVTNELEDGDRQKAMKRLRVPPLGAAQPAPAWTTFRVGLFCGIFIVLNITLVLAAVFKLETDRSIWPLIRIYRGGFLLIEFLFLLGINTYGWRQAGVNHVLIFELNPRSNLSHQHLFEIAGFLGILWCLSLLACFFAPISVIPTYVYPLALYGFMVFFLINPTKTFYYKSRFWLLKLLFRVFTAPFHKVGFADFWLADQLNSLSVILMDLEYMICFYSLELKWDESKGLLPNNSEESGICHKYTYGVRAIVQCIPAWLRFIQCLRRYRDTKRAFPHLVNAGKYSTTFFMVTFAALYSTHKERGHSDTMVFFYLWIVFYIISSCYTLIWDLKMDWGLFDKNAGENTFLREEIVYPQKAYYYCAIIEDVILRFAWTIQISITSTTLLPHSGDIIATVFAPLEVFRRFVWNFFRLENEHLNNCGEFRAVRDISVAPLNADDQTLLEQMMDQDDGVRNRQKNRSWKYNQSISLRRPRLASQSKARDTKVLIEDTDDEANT

polytropic/xenotropic receptor encoded by the Rmc1 locus of the NIH Swiss inbred NFS/N mouse (mouse (NIH Swiss; NIH 3T3 cells)), sequence (Q9Z0U0 whole entry): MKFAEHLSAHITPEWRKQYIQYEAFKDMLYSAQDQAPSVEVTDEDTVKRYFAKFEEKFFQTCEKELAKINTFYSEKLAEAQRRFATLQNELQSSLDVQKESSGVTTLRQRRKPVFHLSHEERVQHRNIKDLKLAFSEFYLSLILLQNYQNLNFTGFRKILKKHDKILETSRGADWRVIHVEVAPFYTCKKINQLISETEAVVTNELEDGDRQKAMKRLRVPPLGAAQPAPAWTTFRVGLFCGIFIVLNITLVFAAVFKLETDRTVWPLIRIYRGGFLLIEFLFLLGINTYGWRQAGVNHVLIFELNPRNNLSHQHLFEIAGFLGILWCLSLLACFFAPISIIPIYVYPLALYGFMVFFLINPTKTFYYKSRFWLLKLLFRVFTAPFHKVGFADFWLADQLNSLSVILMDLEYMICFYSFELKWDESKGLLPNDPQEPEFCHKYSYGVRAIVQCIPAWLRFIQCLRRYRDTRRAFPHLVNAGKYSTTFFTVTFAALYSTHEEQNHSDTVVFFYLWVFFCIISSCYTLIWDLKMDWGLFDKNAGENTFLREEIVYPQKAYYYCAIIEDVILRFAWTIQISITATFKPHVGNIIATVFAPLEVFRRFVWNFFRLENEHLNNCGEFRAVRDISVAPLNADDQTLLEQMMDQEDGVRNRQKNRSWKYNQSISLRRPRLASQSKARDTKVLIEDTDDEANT
ecotropic receptor mCAT-1, sequence (Q09143 whole entry): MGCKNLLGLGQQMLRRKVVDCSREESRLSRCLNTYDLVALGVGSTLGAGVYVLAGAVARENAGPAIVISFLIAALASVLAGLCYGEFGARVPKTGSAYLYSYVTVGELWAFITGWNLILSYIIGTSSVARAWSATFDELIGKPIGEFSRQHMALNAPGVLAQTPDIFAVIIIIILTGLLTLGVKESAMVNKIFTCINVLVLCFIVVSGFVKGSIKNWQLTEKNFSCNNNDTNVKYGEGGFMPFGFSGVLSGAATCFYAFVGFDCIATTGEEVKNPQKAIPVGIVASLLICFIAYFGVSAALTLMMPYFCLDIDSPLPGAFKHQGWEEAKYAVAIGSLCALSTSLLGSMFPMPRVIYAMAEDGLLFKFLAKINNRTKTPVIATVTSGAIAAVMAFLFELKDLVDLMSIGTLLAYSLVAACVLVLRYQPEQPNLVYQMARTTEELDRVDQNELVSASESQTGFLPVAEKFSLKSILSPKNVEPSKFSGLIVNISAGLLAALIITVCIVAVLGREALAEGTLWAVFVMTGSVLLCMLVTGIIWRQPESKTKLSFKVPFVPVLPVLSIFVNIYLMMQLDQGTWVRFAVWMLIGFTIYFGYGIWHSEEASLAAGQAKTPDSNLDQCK

For “Akv MLV envelope protein (ecotropic envelope) (from UniProt P03386 32-669)”, in assay [1], the fold lowering of titer on PSI-2 cells against NIH 3T3 cells worked out at 10000 fold; the titer of mini-virus on HeLa mCAT cells was 50000 cfu/mL and 30000 cfu/mL; the titer of mini-virus on NIH3T3 cells is 1.6e+06 cfu/mL and 800000 cfu/mL; the titer of mini-virus on PSI-2 cells (ecotropic receptor blocked by ecotropic envelope) was 170 cfu/mL and 120 cfu/mL.
In assay [2], “MCF 247 envelope protein (polytropic MLV MCF-247)” returned a titer on NIH 3T3 (murine) cells of 4.8e+06 c.f.u./ml. In assay [3], this substance came in with a Titer on 293 cells of 2400 c.f.u./ml, a Titer on Human HeLa cells of 2 c.f.u./ml, a Titer on TE 671 cells transfected with MCF 247 (receptor blocked by MCF 247 envelope) of 16 c.f.u./ml and a titer on TE 671 (human) cells of 150 c.f.u./ml.
In assay [2], “S/M Leader (SL3-2 envelope with the signal peptide of MCF 247)” displayed a titer on NIH 3T3/MCF 247 cells (polytropic receptor blocked) of 12.5 cfu/mL, a titer on NIH 3T3 cells of 200000 cfu/mL and a titer on Psi-2 cells (ecotropic receptor blocked) of 100000 cfu/mL. Besides, in assay [3], the titer on HeLa cells was 0 cfu/mL and the titer on TE 671 cells turned out to be 5 cfu/mL.
In assay [2], “S/M VR3 (SL3-2 envelope with the VR3 region of MCF 247) (from UniProt P03388 33-640)” had a titer on NIH 3T3/MCF 247 cells (polytropic receptor blocked) of 2.5 cfu/mL, a titer on NIH 3T3 cells of 500000 cfu/mL and a titer on Psi-2 cells (ecotropic receptor blocked) of 300000 cfu/mL. In addition, in assay [3], the titer on HeLa cells was 250 cfu/mL and the titer on TE 671 cells was found to be 22500 cfu/mL.
Turning to “S/M VRA (SL3-2 envelope with the VRA segment of MCF 247)”, in assay [2], the titer on NIH 3T3/MCF 247 cells (polytropic receptor blocked) worked out at 2.5 cfu/mL, the titer on NIH 3T3 cells was 225000 cfu/mL and the titer on Psi-2 cells (ecotropic receptor blocked) came to 400000 cfu/mL. Further, in assay [3], the titer on HeLa cells was 0 cfu/mL and the titer on TE 671 cells is 2.5 cfu/mL.
On to “S/M VRB (SL3-2 envelope with the VRB segment of MCF 247)”, for which, in assay [2], the titer on NIH 3T3/MCF 247 cells (polytropic receptor blocked) was found to be 2.5 cfu/mL, the titer on NIH 3T3 cells stood at 3e+06 cfu/mL and the titer on Psi-2 cells (ecotropic receptor blocked) was determined as 500000 cfu/mL. In assay [3], this substance displayed a titer on HeLa cells of 0 cfu/mL and a titer on TE 671 cells of 5 cfu/mL.
Consider “SL3-2 envelope mutant CR (C at 212, R at 213) (from UniProt P03388 33-640)”, for which the titer on NIH 3T3 (murine) cells in assay [2] came to 2.4e+06 c.f.u./ml. The titer on TE 671 (human) cells in assay [3] worked out at 12 c.f.u./ml.
Taken in the same sequence, the figures for “SL3-2 envelope mutant GA (G at 212, A at 213) (from UniProt P03388 33-640)” were 5.6e+06 c.f.u./ml and 2800 c.f.u./ml.
In assay [2], “SL3-2 envelope mutant GI (G at 212, I at 213) (from UniProt P03388 33-640)” registered a Titer (cfu/mL) on NIH 3T3 cells of 2e+06 cfu/mL and a titer on NIH 3T3 (murine) cells of 7.6e+06 c.f.u./ml. In assay [3], this substance came in with a Titer (cfu/mL) on TE 671 cells of 450000 cfu/mL, a Titer on 293 cells of 200000 c.f.u./ml, a Titer on Human HeLa cells of 130 c.f.u./ml and a Titer on TE 671 cells transfected with MCF 247 (receptor blocked by MCF 247 envelope) of 6000 c.f.u./ml. In assay [3], the fold decrease of titer on TE 671 cells expressing MCF 247 envelope was 100 fold, the fold rise of titer on human cells against wild type SL3-2 stood at 100000 fold and the titer on TE 671 (human) cells came to 440000 c.f.u./ml.
With “SL3-2 envelope mutant GK (G at 212, K at 213) (from UniProt P03388 33-640)”, in assay [2], the titer on NIH 3T3 (murine) cells came to 5.2e+06 c.f.u./ml. The titer on TE 671 (human) cells in assay [3] came to 5600 c.f.u./ml.
On to “SL3-2 envelope mutant GT (G at 212, T at 213) (from UniProt P03388 33-640)”, for which, in assay [2], the Titer (cfu/mL) on NIH 3T3 cells was 2e+06 cfu/mL and the titer on NIH 3T3 (murine) cells is 8.4e+06 c.f.u./ml. In assay [3], this substance returned a Titer (cfu/mL) on TE 671 cells of 1500 cfu/mL and a titer on TE 671 (human) cells of 520 c.f.u./ml.
Turning to “SL3-2 envelope mutant GV (G at 212, V at 213) (from UniProt P03388 33-640)”, in assay [2], the titer on NIH 3T3 (murine) cells was found to be 3.6e+06 c.f.u./ml. This substance had a titer on TE 671 (human) cells in assay [3] of 320000 c.f.u./ml.
The like results for “SL3-2 envelope mutant LA (L at 212, A at 213) (from UniProt P03388 33-640)” were, in that order, 1.1e+07 c.f.u./ml and 5200 c.f.u./ml.
Consider “SL3-2 envelope mutant LI (L at 212, I at 213) (from UniProt P03388 33-640)”, for which, in assay [2], the titer on NIH 3T3 (murine) cells is 2.4e+06 c.f.u./ml. In assay [3], this substance came in with a Titer on 293 cells of 12000 c.f.u./ml, a Titer on TE 671 cells transfected with MCF 247 (receptor blocked by MCF 247 envelope) of 68 c.f.u./ml, a fold decrease of titer on TE 671 cells expressing MCF 247 envelope of 100 fold and a titer on TE 671 (human) cells of 1200 c.f.u./ml.
Take “SL3-2 envelope mutant LV (L at 212, V at 213) (from UniProt P03388 33-640)”: in assay [2], the titer on NIH 3T3 (murine) cells was 3.6e+06 c.f.u./ml. Moreover, in assay [3], the titer on TE 671 (human) cells stood at 16000 c.f.u./ml.
Taken in the same sequence, the figures for “SL3-2 envelope mutant MA (M at 212, A at 213) (from UniProt P03388 33-640)” were 9.6e+06 c.f.u./ml and 250000 c.f.u./ml.
Taken in the same sequence, the figures for “SL3-2 envelope mutant MI (M at 212, I at 213) (from UniProt P03388 33-640)” were 240000 c.f.u./ml and 28000 c.f.u./ml.
“SL3-2 envelope mutant MV (M at 212, V at 213) (from UniProt P03388 33-640)” came in with a titer on NIH 3T3 (murine) cells in assay [2] of 9.6e+06 c.f.u./ml. In assay [3], the Titer on 293 cells was 240000 c.f.u./ml, the Titer on Human HeLa cells was 100 c.f.u./ml, the Titer on TE 671 cells transfected with MCF 247 (receptor blocked by MCF 247 envelope) is 16000 c.f.u./ml and the fold decrease of titer on TE 671 cells expressing MCF 247 envelope was determined as 100 fold. In assay [3], the fold rise of titer on human cells against the GI mutant was > 10 fold and the titer on TE 671 (human) cells was determined as 7.2e+06 c.f.u./ml.
In turn, “SL3-2 envelope mutant RA (R at 212, A at 213) (from UniProt P03388 33-640)” returned a titer on NIH 3T3 (murine) cells in assay [2] of 1e+07 c.f.u./ml. Moreover, the titer on TE 671 (human) cells in assay [3] is 4 c.f.u./ml.
In assay [2], “SL3-2 envelope mutant RI (R at 212, I at 213) (from UniProt P03388 33-640)” showed a Titer (cfu/mL) on NIH 3T3 cells of 3.25e+06 cfu/mL and a titer on NIH 3T3 (murine) cells of 6.4e+06 c.f.u./ml. In assay [3], this substance came in with a Titer (cfu/mL) on TE 671 cells of 22.5 cfu/mL and a titer on TE 671 (human) cells of 24 c.f.u./ml.
For “SL3-2 envelope polypeptide (wild type envelope protein of Murine Leukaemia Virus SL3-2) (from UniProt P03388 33-640)”, in assay [3], the Titer (cfu/mL) on TE 671 cells is 4.75 cfu/mL, the Titer on 293 cells was < 2 c.f.u./ml, the Titer on Human HeLa cells was < 2 c.f.u./ml and the titer on HeLa cells stood at 0 cfu/mL. For the same substance, in assay [3], the titer on TE 671 (human) cells is < 4 c.f.u./ml and the titer on TE 671 cells is < 2 c.f.u./ml.
